Biological target: the molecule itself
Test: negative-stain TEM of fibrils

Protein: Ac-SFYVYSRVK-NH2 [SK9, SARS-CoV-2 envelope protein peptide SFYVYSRVK]
- binding result: binds

Protein: Ac-LVKPSFYVYSRVKNLNSSRV-NH2 [LV20, 20-residue SARS-CoV-2 envelope protein peptide LVKPSFYVYSRVKNLNSSRV]
- binding result: binds

— paper doi:10.1101/2024.04.25.591137 (bioRxiv, 2024)
